In publication PMC10470860 one finds Kd data, which are given here for 1 substance.

Data set [1] has as its system RFTS-containing DNMT1 A554V (human). As to the kind of experiment: fluorescence polarization. The note with it: 5-methylcytosine on one strand (hemimethylated), 100 nM DNA, 28 °C, triplicate, hyperbolic fit, buffer, salt and pH not given (as in ref [25]). In general terms: Fluorescence polarisation rises when a labelled molecule tumbles more slowly, as on binding a larger partner.

Data set [2] relates to RFTS-containing DNMT1 wild-type (human). As to the kind of experiment: fluorescence polarization. The note with it: 5-methylcytosine on one strand (hemimethylated), 100 nM DNA, 28 °C, triplicate, hyperbolic fit, buffer, salt and pH not given (as in ref [25]).

By Kd is commonly meant the constant that tells how readily two partners part at equilibrium. As for 18 bp hemimethylated duplex DNA, the Kd in data set [1] is 550 nM; in data set [2], 4600 nM.
